Measurements taken from patent US5683983.

Target: extracellular domain (ECD) of the IL-5 receptor α chain (IL-5R α) (human) (UniProt Q01344)
Test: grade under 'Affinity'; IC50 values of 500 nm or less; competition with [125I] IL-5 for IL-5Rα ECD (Example 3), assay not given

IC50, < 500 nM:
DGYVCVEWARCPMCT [D G Y V C V E W A R C P M C T (SEQ ID NO:8)], DGFVCVEWARCPNCR [D G F V C V E W A R C P N C R (SEQ ID NO:9)], DGYVCVEWARCPTCK [D G Y V C V E W A R C P T C K (SEQ ID NO:7)]
